This is an account of results in US20120121587A1 (Chugai, published 2012).

In the test the target is T1, Human recombinant AXL-FND1 (GST-FND1), from pET-41b(+) (human, UniProt P30530 225-331).
T1 construct: Expressed in E. coli, purified on Glutathione Sepharose; analyte in all Biacore measurements; GST put first by the usual layout of pET-41; not shown: GST-tag of vector pET-41b(+) (Novagen)
T1 sequence (looked up): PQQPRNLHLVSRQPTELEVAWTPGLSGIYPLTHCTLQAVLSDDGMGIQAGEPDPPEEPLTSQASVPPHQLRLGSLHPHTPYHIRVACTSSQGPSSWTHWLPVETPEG
The test is described as follows: SPR (Biacore T100): antibody captured on Protein A, GST-FND1 as analyte. The procedure, abridged:
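Antibodies (1 μg/mL) were captured for 2 min on a Protein A CM5 chip. GST-FND1 (0.5 and 2.0 μg/mL) in HBS-EP+ was flowed at 30 μL/min with 2 min association and 2 min dissociation at 25° C. ka and kd were fitted from sensorgrams and Kd was calculated from them.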

B1: H39/L0 (antibody, human IgG1, kappa)
heavy: not shown
light: DVVMTQSPLSLPVTLGQPASISCRSSQNIVHTNGNTYLEWYQQKPGKAPELLIYKVSNRFSGVPDRFSGSGSGTDFTLKISRVEAEDVGVYYCFQGSHIPFTFGQGTKLEIKRTVAAPSVFIFPPSDEQLKSGTASVVCLLNNFYPREAKVQWKVDNALQSGNSQESVTEQDSKDSTYSLSSTLTLSKADYEKHKVYACEVTHQGLSSPVTKSFNRGEC
B1: the Kd (usually the equilibrium constant for the complex coming apart) was 3.43 nM.

B2: H46/L1 (antibody, human IgG1, kappa)
heavy: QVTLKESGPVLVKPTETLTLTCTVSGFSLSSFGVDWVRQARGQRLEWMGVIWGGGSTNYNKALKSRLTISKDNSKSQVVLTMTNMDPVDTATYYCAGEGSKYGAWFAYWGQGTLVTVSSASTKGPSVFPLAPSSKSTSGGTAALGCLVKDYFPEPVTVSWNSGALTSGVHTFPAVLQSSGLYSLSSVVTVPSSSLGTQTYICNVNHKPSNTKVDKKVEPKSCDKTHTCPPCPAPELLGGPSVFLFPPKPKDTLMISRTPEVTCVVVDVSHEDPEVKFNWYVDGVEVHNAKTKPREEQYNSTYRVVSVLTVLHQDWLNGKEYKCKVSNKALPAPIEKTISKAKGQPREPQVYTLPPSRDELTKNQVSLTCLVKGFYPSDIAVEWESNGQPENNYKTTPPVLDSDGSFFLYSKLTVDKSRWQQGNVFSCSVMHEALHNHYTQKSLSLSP
light: DVVMTQSPLSLPVTLGQPASISCQSSQNIVHTNGNTYLEWYQQKPGKAPELLIYKVSNRFSGVPDRFSGSGSGTDFTLKISRVEAEDVGVYYCFQGSHIPFTFGQGTKLEIKRTVAAPSVFIFPPSDEQLKSGTASVVCLLNNFYPREAKVQWKVDNALQSGNSQESVTEQDSKDSTYSLSSTLTLSKADYEKHKVYACEVTHQGLSSPVTKSFNRGEC
For the molecule B2, the equilibrium dissociation constant (Kd) was found to be 1.84 nM.

B3: H47/L0 (antibody, human IgG1, kappa)
heavy: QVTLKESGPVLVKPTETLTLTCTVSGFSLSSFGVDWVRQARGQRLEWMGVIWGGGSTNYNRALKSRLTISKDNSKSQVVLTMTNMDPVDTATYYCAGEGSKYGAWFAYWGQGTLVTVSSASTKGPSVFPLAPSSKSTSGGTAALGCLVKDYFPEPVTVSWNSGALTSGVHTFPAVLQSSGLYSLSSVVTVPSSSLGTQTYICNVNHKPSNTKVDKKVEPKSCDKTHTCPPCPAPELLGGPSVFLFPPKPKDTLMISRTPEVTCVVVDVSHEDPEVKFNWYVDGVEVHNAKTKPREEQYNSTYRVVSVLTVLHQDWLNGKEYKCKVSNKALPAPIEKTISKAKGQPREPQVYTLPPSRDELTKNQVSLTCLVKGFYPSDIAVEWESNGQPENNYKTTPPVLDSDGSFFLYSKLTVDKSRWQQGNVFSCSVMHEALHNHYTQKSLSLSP
light: DVVMTQSPLSLPVTLGQPASISCRSSQNIVHTNGNTYLEWYQQKPGKAPELLIYKVSNRFSGVPDRFSGSGSGTDFTLKISRVEAEDVGVYYCFQGSHIPFTFGQGTKLEIKRTVAAPSVFIFPPSDEQLKSGTASVVCLLNNFYPREAKVQWKVDNALQSGNSQESVTEQDSKDSTYSLSSTLTLSKADYEKHKVYACEVTHQGLSSPVTKSFNRGEC
With B3, the Kd amounted to 1.84 nM.

B4: H41/L0 (antibody, human IgG1, kappa, V domains shown)
VH: QVTLKESGPVLVKPTETLTLTCTVSGFSLSRFGVDWVRQARGQRLEWMGVIWGGGSTNYNSALKSRLTISKDNSKSQVVLTMTNMDPVDTATYYCAGEGSKYGAWFAYWGQGTLVTVSS
VL: DVVMTQSPLSLPVTLGQPASISCRSSQNIVHTNGNTYLEWYQQKPGKAPELLIYKVSNRFSGVPDRFSGSGSGTDFTLKISRVEAEDVGVYYCFQGSHIPFTFGQGTKLEIKR
On to B4, for which the Kd turned out to be 2.35 nM.

B5: H47/L11 (antibody, human IgG1, kappa)
heavy: not shown
light: DVVMTQSPLSLPVTLGQPASISCQSSQNIVHTNGNTYLEWYQQKPGKAPELLIYKVSNRFSGVPDRFSGSGSGTDFTLKISRVEAEDVGVYYCFQGSHIPFTFGQGTKVEIERTVAAPSVFIFPPSDEQLKSGTASVVCLLNNFYPREAKVQWKVDNALQSGNSQESVTEQDSKDSTYSLSSTLTLSKADYEKHKVYACEVTHQGLSSPVTKSFNRGEC
Consider B5, for which the Kd is 1.83 nM.

B6: H47/L27 (antibody, human IgG1, kappa)
heavy: not shown
light: DVVMTQSPLSLPVTLGQPASISCRSSRNIVHTNGNTYLEWYQQKPGKAPELLIYKVSNRFSGVPDRFSGSGSGTDFTLKISRVEAEDVGVYYCFQGSHIPFTFGQGTKLEIKRTVAAPSVFIFPPSDEQLKSGTASVVCLLNNFYPREAKVQWKVDNALQSGNSQESVTEQDSKDSTYSLSSTLTLSKADYEKHKVYACEVTHQGLSSPVTKSFNRGEC
With B6, the dissociation constant (Kd) was 1.6 nM.

B7: H46/L11 (antibody, human IgG1, kappa)
heavy: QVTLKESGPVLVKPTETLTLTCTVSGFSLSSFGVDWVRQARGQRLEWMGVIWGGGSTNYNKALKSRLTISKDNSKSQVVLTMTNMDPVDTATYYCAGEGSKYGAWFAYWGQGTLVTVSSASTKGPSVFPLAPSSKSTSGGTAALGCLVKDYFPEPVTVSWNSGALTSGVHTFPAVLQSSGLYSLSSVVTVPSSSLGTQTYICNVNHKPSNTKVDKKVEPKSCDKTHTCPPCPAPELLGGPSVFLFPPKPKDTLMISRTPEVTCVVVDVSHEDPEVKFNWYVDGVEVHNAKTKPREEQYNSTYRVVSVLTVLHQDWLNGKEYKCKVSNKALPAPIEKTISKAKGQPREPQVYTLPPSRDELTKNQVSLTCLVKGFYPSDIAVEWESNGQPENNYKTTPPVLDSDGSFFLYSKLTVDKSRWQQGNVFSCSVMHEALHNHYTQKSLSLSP
light: DVVMTQSPLSLPVTLGQPASISCQSSQNIVHTNGNTYLEWYQQKPGKAPELLIYKVSNRFSGVPDRFSGSGSGTDFTLKISRVEAEDVGVYYCFQGSHIPFTFGQGTKVEIERTVAAPSVFIFPPSDEQLKSGTASVVCLLNNFYPREAKVQWKVDNALQSGNSQESVTEQDSKDSTYSLSSTLTLSKADYEKHKVYACEVTHQGLSSPVTKSFNRGEC
Consider B7, for which the dissociation constant Kd came out at 1.8 nM.

B8: H46/L28 (antibody, human IgG1, kappa)
heavy: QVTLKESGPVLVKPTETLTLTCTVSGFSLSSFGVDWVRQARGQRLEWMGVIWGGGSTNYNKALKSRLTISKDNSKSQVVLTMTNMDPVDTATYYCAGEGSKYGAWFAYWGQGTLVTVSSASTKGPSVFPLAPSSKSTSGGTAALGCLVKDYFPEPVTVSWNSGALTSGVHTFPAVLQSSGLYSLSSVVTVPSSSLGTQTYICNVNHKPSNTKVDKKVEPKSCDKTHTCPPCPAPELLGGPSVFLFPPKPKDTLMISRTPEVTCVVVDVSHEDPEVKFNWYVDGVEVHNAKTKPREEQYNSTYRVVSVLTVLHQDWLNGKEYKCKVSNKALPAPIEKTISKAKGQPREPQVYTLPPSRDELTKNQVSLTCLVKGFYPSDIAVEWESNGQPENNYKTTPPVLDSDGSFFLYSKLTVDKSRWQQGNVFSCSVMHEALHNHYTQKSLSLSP
light: DVVMTQSPLSLPVTLGQPASISCRSSQNIVHTNGNTYLEWYQQKPGKAPKLLIYKVSNRFSGVPDRFSGSGSGTDFTLKISRVEAEDVGVYYCFQGSHIPFTFGQGTKLEIKRTVAAPSVFIFPPSDEQLKSGTASVVCLLNNFYPREAKVQWKVDNALQSGNSQESVTEQDSKDSTYSLSSTLTLSKADYEKHKVYACEVTHQGLSSPVTKSFNRGEC
With B8, the Kd is 1.86 nM.

B9: H47/L1 (antibody, human IgG1, kappa)
heavy: not shown
light: DVVMTQSPLSLPVTLGQPASISCQSSQNIVHTNGNTYLEWYQQKPGKAPELLIYKVSNRFSGVPDRFSGSGSGTDFTLKISRVEAEDVGVYYCFQGSHIPFTFGQGTKLEIKRTVAAPSVFIFPPSDEQLKSGTASVVCLLNNFYPREAKVQWKVDNALQSGNSQESVTEQDSKDSTYSLSSTLTLSKADYEKHKVYACEVTHQGLSSPVTKSFNRGEC
For B9, the Kd is 1.89 nM.

B10: H47/L10 (antibody, human IgG1, kappa)
heavy: not shown
light: DVVMTQSPLSLPVTLGQPASISCRSSQNIVHTNGNTYLEWYQQKPGKAPELLIYKVSNRFSGVPDRFSGSGSGTDFTLKISRVEAEDVGVYYCFQGSHIPFTFGQGTKVEIERTVAAPSVFIFPPSDEQLKSGTASVVCLLNNFYPREAKVQWKVDNALQSGNSQESVTEQDSKDSTYSLSSTLTLSKADYEKHKVYACEVTHQGLSSPVTKSFNRGEC
Take B10: the Kd came to 1.89 nM.

B11: H47/L34 (antibody, human IgG1, kappa)
heavy: not shown
light: DVVMTQSPLSLPVTLGRPASISCRSSRNIVHTNGNTYLEWYQQKPGKAPKLLIYKVSNRFSGVPDRFSGSGSGTDFTLKISRVEAEDVGVYYCFQGSHIPFTFGQGTKLEIKRTVAAPSVFIFPPSDEQLKSGTASVVCLLNNFYPREAKVQWKVDNALQSGNSQESVTEQDSKDSTYSLSSTLTLSKADYEKHKVYACEVTHQGLSSPVTKSFNRGEC
For B11, the Kd is 2.2 nM.

B12: H47/L28 (antibody, human IgG1, kappa)
heavy: not shown
light: DVVMTQSPLSLPVTLGQPASISCRSSQNIVHTNGNTYLEWYQQKPGKAPKLLIYKVSNRFSGVPDRFSGSGSGTDFTLKISRVEAEDVGVYYCFQGSHIPFTFGQGTKLEIKRTVAAPSVFIFPPSDEQLKSGTASVVCLLNNFYPREAKVQWKVDNALQSGNSQESVTEQDSKDSTYSLSSTLTLSKADYEKHKVYACEVTHQGLSSPVTKSFNRGEC
For the molecule B12, the dissociation constant (Kd) came to 1.52 nM.

B13: H46/L37 (antibody, human IgG1, kappa)
heavy: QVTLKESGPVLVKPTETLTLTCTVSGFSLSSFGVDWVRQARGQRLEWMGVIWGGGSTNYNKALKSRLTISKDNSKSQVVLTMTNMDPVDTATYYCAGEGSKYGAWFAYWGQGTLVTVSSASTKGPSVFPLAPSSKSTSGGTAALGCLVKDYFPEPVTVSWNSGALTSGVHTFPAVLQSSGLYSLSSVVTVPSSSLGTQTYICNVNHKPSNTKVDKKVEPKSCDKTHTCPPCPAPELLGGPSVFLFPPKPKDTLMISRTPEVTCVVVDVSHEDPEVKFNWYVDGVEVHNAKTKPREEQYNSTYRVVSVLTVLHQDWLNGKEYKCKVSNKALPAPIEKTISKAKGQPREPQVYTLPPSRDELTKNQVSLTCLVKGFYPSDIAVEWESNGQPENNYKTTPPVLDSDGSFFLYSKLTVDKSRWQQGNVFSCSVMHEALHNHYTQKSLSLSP
light: DVVMTQSPLSLPVTLGRPASISCRSSRNIVHTNGNTYLEWYQQKPGKAPKLLIYKVSNRFSGVPDRFSGSGSGTDFTLKISRVEAEDVGVYYCFQGSHIPFTFGRGTKLEIKRTVAAPSVFIFPPSDEQLKSGTASVVCLLNNFYPREAKVQWKVDNALQSGNSQESVTEQDSKDSTYSLSSTLTLSKADYEKHKVYACEVTHQGLSSPVTKSFNRGEC
With B13, the Kd stood at 2.3 nM.

B14: H40/L0 (antibody, human IgG1, kappa, V domains shown)
VH: QVTLKESGPVLVKPTETLTLTCTVSGFSLSKFGVDWVRQARGQRLEWMGVIWGGGSTNYNSALKSRLTISKDNSKSQVVLTMTNMDPVDTATYYCAGEGSKYGAWFAYWGQGTLVTVSS
VL: DVVMTQSPLSLPVTLGQPASISCRSSQNIVHTNGNTYLEWYQQKPGKAPELLIYKVSNRFSGVPDRFSGSGSGTDFTLKISRVEAEDVGVYYCFQGSHIPFTFGQGTKLEIKR
For B14, the Kd is 3.51 nM.

B15: H46/L10 (antibody, human IgG1, kappa)
heavy: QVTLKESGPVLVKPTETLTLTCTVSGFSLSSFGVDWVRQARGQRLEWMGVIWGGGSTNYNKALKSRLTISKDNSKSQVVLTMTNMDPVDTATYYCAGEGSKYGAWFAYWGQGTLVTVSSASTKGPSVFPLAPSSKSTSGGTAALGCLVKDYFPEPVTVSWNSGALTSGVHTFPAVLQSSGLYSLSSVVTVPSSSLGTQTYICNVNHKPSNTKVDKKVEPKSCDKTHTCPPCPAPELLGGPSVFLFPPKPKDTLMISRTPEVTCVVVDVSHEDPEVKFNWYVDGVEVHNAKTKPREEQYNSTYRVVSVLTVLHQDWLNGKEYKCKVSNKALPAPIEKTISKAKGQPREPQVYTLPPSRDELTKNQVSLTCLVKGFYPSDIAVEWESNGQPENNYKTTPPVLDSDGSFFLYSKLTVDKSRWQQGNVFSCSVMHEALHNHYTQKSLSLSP
light: DVVMTQSPLSLPVTLGQPASISCRSSQNIVHTNGNTYLEWYQQKPGKAPELLIYKVSNRFSGVPDRFSGSGSGTDFTLKISRVEAEDVGVYYCFQGSHIPFTFGQGTKVEIERTVAAPSVFIFPPSDEQLKSGTASVVCLLNNFYPREAKVQWKVDNALQSGNSQESVTEQDSKDSTYSLSSTLTLSKADYEKHKVYACEVTHQGLSSPVTKSFNRGEC
For the molecule B15, the Kd is 1.88 nM.

B16: H46/L0 (antibody, human IgG1, kappa)
heavy: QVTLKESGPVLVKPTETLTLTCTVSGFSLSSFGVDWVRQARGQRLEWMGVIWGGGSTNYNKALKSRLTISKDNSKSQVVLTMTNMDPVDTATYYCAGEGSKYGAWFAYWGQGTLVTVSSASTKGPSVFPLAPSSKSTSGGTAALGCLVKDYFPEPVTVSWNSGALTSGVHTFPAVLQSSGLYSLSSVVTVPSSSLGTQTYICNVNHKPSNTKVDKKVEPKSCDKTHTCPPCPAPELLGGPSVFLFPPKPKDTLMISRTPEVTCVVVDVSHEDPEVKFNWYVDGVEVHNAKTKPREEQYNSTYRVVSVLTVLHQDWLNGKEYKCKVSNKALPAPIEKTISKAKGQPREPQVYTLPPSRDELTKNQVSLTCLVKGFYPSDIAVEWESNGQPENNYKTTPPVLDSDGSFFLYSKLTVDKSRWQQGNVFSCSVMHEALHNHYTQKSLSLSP
light: DVVMTQSPLSLPVTLGQPASISCRSSQNIVHTNGNTYLEWYQQKPGKAPELLIYKVSNRFSGVPDRFSGSGSGTDFTLKISRVEAEDVGVYYCFQGSHIPFTFGQGTKLEIKRTVAAPSVFIFPPSDEQLKSGTASVVCLLNNFYPREAKVQWKVDNALQSGNSQESVTEQDSKDSTYSLSSTLTLSKADYEKHKVYACEVTHQGLSSPVTKSFNRGEC
In the case of B16, the Kd was determined as 1.87 nM.

B17: H46/L35 (antibody, human IgG1, kappa)
heavy: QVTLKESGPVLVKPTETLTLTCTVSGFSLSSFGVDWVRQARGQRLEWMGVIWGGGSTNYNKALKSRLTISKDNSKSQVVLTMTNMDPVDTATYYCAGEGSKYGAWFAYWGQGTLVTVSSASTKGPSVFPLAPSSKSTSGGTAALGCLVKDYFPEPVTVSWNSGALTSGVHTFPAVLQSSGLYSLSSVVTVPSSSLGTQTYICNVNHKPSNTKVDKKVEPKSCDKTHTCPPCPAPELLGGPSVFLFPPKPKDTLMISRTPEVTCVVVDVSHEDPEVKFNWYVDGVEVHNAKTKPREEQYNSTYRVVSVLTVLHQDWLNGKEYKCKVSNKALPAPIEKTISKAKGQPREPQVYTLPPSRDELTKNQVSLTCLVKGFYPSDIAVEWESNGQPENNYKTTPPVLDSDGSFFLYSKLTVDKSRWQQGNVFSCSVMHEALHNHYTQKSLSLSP
light: DVVMTQSPLSLPVTLGQPASISCRSSRNIVHTNGNTYLEWYQQKPGKAPKLLIYKVSNRFSGVPDRFSGSGSGTDFTLKISRVEAEDVGVYYCFQGSHIPFTFGRGTKLEIKRTVAAPSVFIFPPSDEQLKSGTASVVCLLNNFYPREAKVQWKVDNALQSGNSQESVTEQDSKDSTYSLSSTLTLSKADYEKHKVYACEVTHQGLSSPVTKSFNRGEC
For B17, the equilibrium dissociation constant (Kd) was 2.04 nM.

B18: H46/L34 (antibody, human IgG1, kappa)
heavy: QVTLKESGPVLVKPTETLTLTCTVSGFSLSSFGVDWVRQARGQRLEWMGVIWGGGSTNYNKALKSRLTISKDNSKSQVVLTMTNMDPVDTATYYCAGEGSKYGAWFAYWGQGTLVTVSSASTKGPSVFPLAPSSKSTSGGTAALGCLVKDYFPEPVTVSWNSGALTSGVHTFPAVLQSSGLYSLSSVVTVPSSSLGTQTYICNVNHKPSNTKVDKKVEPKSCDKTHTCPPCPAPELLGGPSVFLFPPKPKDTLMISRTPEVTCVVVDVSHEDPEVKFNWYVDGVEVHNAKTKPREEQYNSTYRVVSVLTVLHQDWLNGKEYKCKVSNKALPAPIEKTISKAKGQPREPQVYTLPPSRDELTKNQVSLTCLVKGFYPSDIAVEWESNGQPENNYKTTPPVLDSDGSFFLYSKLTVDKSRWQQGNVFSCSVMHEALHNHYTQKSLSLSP
light: DVVMTQSPLSLPVTLGRPASISCRSSRNIVHTNGNTYLEWYQQKPGKAPKLLIYKVSNRFSGVPDRFSGSGSGTDFTLKISRVEAEDVGVYYCFQGSHIPFTFGQGTKLEIKRTVAAPSVFIFPPSDEQLKSGTASVVCLLNNFYPREAKVQWKVDNALQSGNSQESVTEQDSKDSTYSLSSTLTLSKADYEKHKVYACEVTHQGLSSPVTKSFNRGEC
For B18, the Kd turned out to be 2.22 nM.

B19: H46/L31 (antibody, human IgG1, kappa)
heavy: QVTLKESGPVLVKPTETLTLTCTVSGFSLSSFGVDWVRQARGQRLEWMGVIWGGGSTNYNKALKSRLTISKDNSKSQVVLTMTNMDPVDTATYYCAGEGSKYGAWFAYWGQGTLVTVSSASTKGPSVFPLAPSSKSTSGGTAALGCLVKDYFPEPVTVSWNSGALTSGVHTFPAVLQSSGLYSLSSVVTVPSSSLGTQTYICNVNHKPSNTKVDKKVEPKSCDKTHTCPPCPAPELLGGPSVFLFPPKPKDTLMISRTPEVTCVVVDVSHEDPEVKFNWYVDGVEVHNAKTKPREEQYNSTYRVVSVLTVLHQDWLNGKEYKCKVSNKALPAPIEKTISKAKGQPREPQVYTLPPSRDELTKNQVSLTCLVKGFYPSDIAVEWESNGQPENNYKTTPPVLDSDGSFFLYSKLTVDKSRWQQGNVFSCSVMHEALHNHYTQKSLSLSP
light: DVVMTQSPLSLPVTLGQPASISCRSSRNIVHTNGNTYLEWYQQKPGKAPKLLIYKVSNRFSGVPDRFSGSGSGTDFTLKISRVEAEDVGVYYCFQGSHIPFTFGQGTKLEIKRTVAAPSVFIFPPSDEQLKSGTASVVCLLNNFYPREAKVQWKVDNALQSGNSQESVTEQDSKDSTYSLSSTLTLSKADYEKHKVYACEVTHQGLSSPVTKSFNRGEC
For the molecule B19, the Kd worked out at 1.9 nM.

B20: H47/L31 (antibody, human IgG1, kappa)
heavy: not shown
light: DVVMTQSPLSLPVTLGQPASISCRSSRNIVHTNGNTYLEWYQQKPGKAPKLLIYKVSNRFSGVPDRFSGSGSGTDFTLKISRVEAEDVGVYYCFQGSHIPFTFGQGTKLEIKRTVAAPSVFIFPPSDEQLKSGTASVVCLLNNFYPREAKVQWKVDNALQSGNSQESVTEQDSKDSTYSLSSTLTLSKADYEKHKVYACEVTHQGLSSPVTKSFNRGEC
For the molecule B20, the Kd is 1.83 nM.

B21: H46/L27 (antibody, human IgG1, kappa)
heavy: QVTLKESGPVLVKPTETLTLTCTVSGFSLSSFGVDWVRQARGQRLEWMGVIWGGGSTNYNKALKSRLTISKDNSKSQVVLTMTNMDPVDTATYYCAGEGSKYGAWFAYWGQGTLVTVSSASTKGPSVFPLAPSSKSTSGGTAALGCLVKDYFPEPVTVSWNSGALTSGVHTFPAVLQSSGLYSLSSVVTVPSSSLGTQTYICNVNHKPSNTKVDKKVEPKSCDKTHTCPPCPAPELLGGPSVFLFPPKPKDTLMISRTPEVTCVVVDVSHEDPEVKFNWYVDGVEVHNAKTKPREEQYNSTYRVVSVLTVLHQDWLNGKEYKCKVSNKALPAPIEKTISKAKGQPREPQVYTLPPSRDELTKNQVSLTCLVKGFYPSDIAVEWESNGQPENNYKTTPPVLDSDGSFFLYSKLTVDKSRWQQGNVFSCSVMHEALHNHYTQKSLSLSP
light: DVVMTQSPLSLPVTLGQPASISCRSSRNIVHTNGNTYLEWYQQKPGKAPELLIYKVSNRFSGVPDRFSGSGSGTDFTLKISRVEAEDVGVYYCFQGSHIPFTFGQGTKLEIKRTVAAPSVFIFPPSDEQLKSGTASVVCLLNNFYPREAKVQWKVDNALQSGNSQESVTEQDSKDSTYSLSSTLTLSKADYEKHKVYACEVTHQGLSSPVTKSFNRGEC
With B21, the Kd was 1.9 nM.
